For two molecules, Kd results are on record in patent publication US20080124327A1 (published 2008).

The target of this assay is T1, Recombinant human CD44/Fc (R&D Systems, Minneapolis, Minn., USA) (human, UniProt P16070 21-220).
T1 construct: Purchased reagent, amine-coupled to a CM5 chip at about 500 RU; also called rhCD44; recombinant CD44; not shown: Fc part of the purchased fusion
The assay can be described thus: SPR (Biacore T100); rhCD44/Fc amine-coupled to a CM5 chip, antibody injected at 0.67 to 667 nM, 1:1 model. For orientation: Surface plasmon resonance follows binding to a sensor surface in real time, without labels.

T1 sequence (P16070 21-220): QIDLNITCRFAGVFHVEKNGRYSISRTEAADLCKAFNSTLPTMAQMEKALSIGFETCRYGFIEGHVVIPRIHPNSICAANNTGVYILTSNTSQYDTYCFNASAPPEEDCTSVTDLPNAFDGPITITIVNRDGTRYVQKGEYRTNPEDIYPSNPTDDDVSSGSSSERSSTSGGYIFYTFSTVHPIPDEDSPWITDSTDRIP

B1: (hu)ARH460-16-2 variant HV1/KV1 (antibody, V domains shown)
VH: EVQLVESGGGLVQPGGSLRLSCAASGFDFSRYWMSWVRQAPGKGLVWVGEVNPDSTSINYTPSLKDRFTISRDNAKNTLYLQMNSLRAEDTAVYYCTRPNYYGSRYHYYAMDYWGQGTLVTVSS
VL: DIQMTQSPSSLSASVGDRVTITCRASQDINNYLNWYQQKPGKAPKLLIYYTSRLHSGVPSRFSGSGSGTDFTFTISSLQPEDIATYYCQQGSTLPFTFGQGTKLEIK
notes: Humanized variable regions cloned into pANT18 (human IgG1 constant region, human kappa constant region); also called (hu)ARH460-16-2 variant 1; huARH460-16-2-variant 1
Take B1: the Kd was determined as 6.32 nM.

B2: H460-16-2 (murine monoclonal antibody produced by the hybridoma deposited with the ATCC as accession number PTA-4621) (antibody, V domains shown)
VH: EVKLLESGGGLVQPGGSLKLSCATSGFDFSRYWMSWVRQAPGKGLEWIGEVNPDSTSINYTPSLKDQFIISRDNAKNTLDLQMSKVSSEDTALYYCTRPNYYGSRYHYYAMDYWGQGTSVTVSS
VL: DIQMTQTTSSLSVSLGDRVTINCRASQDINNYLNWYQQKPDGTVKLLIYYTSRLHSGVPSRFSGSGSGTDFSLTISNLEKEDVATYFCQQGSTLPFTFGSGTKLEIK
For the molecule B2, the Kd was 4.19 nM.

The Kd is a measure of binding affinity in units of concentration.
